Experimental data as given in US20240002535A1 (Merck Sharp & Dohme, published 2024).

How the values were obtained:
[1] = molecular target: T1, human arginase 1 (hArg1), trimeric (human, UniProt P05089 1-322); experiment: isothermal titration calorimetry: hArg1 trimer (100 µM, syringe) titrated into mAb4 mouse/human chimera (10 µM, cell) at 25 °C
T1 construct: Natural homotrimer; It carries two Mn ions in each active site; also called Human Arg1 trimer; trimeric hArg1
T1 sequence: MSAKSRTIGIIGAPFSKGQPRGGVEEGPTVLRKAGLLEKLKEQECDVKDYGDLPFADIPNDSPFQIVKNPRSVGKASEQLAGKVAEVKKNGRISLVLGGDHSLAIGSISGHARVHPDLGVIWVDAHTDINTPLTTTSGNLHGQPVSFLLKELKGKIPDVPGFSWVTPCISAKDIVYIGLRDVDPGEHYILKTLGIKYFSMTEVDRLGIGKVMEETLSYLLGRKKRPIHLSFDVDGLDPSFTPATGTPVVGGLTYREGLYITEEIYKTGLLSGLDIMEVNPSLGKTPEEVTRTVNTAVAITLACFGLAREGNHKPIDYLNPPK
Procedure: (§1) Isothermal titration calorimetry (ITC) was conducted using a MicroCal PEAQ-ITC Automated (Malvern Inc, Westborough, MA) to determine the stoichiometry and thermodynamics properties of the hArg1:mAb interaction. […] Arginase (100 μM) in the ITC syringe was titrated into the antibody (10 μM) in the ITC cell at 25° C. Reference power was set to 10 μcal/sec with initial delay of 60 seconds and stirring speed of 750 rpm. Injection volume was 0.4 μL for the first injection and 4 μL for subsequent injections. Injection duration was 0.8 seconds for the first injection and 6 seconds for subsequent injections with 150 sec spacing. Baseline was adjusted using buffer-buffer titration. Data analysis was done using MicroCal PEAQ-ITC Analysis Software.

[2] = molecular target: T1, human arginase 1 (hArg1), trimeric; experiment: ITC, hArg1 trimer (100 uM, syringe) titrated into the antibody (10 uM, cell) at 25 C
Procedure: as §1

-TΔS [1]: 3 kcal/mol | ΔG [1]: -10.7 kcal/mol | ΔH [1]: -13.7 kcal/mol | stoichiometry n (ITC) [2]: 0.637
B1: mAb4 (mouse/human chimera) (antibody, V domains shown)
VH: EVQLQQSGPVLVKPGASVKMSCKASEYTFTDYYMNWVKQSHGRSLEWIGVISPYNGGTTYNQKFKGKATLTVDKSSSTAYMELNSLTSEDSAVYYCVYDLYYFDYWGQGTTLTVSS
VL: NIVLTQSPATLSVTPGDSVSLSCRASQRISNDLHWYQQKSHESPRLLIKYASQSISGIPSRFSGSGSGTDFTLSINSVETEDFGMYFCQQSNSWPRTFGGGTKLEIK
